Measured values as given in publication doi:10.1101/674218 (bioRxiv, 2019).
One block for each binder: values may come before it.

T1: triggering receptor expressed on myeloid cells-1 (TREM-1) on RAW264.7 macrophages (mouse (endogenous in RAW264.7), UniProt Q9JKE2 21-230)
T1 sequence (looked up): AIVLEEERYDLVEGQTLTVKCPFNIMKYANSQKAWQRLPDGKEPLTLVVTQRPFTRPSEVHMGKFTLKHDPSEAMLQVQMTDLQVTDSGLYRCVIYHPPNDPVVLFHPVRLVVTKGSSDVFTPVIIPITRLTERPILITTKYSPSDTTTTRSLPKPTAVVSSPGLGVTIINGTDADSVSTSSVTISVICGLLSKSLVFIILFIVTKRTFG

T2: recombinant murine cold-inducible RNA-binding protein, His-tagged (rmCIRP-his) (mouse), P60824
T2 chain: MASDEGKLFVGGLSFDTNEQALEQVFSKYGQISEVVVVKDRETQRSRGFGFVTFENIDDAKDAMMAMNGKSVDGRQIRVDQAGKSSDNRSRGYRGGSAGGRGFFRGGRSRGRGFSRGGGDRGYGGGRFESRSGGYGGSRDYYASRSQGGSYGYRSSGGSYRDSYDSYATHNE

T3: recombinant mouse TREM-1-Fc Chimera (mouse, UniProt Q9JKE2 21-202)
T3 sequence (looked up): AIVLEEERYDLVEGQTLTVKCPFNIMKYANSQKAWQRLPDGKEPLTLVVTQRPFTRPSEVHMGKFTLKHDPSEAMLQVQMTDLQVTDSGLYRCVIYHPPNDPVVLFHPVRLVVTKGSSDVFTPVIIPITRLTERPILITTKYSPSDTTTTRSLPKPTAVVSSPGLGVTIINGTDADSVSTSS

B1: recombinant murine cold-inducible RNA-binding protein, His-tagged (rmCIRP-his) (natural protein, mouse, UniProt P60824 1-172, looked up)
chain: T2 chain
B2: recombinant mouse TREM-1-Fc Chimera, Q9JKE2 21-202 (Fc fusion)
chain: T3 sequence (looked up)

Columns and labels:
[1] = biological target: T1, triggering receptor expressed on …; assay: FRET or BRET
[2] = biological target: T2, recombinant murine cold-inducible …; assay: SPR; conditions: remark: other sources report otherwise
[3] = biological target: T3, recombinant mouse TREM-1-Fc Chimera; assay: SPR
[4] = biological target: B1; assay: SPR

Binder: B1
fold increase in FRET units over the negative control CD11b [1]: ~7 fold

Binder: B2
Kd [2]: 0.117 µM

Kd [3]: 35.2 µM
Binder: RGFFRGG [M3, 7-aa peptide derived from CIRP]

Kd [4]: 48 µM
Binder: LQVTDSGLYRCVIYHPP [LP17, 17 amino acid peptide taken from TREM-1]
